In patent US20160137713A1 one finds ELISA (OD450) data, which are given here for four molecules.

The chains are these.
B1: A12-E01 (scFv, V domains shown, not shown: small tags and cut ends)
VH: EVQLVESGGGLVQPGRSLRLSCAASGFTFDEYGMHWVRQAPGKGLEWVSGVSWNSGSIAYADSVRGRFTISRDNAKNSLYLQMNSLRAEDTALYYCAKSRSMDVWGQGTTVTVSS
VL: QSALTQPASVSGSPGQSITISCTGSSSDVGGYNYVSWYQQHPGKAPKLMIYDVTKRPSGVSNRFSGSKSGNTASLTISGLQAEDEADYYGSYSNNNFYVFGTGTKVTVLG
modifications: linker not given
B2: A12-E04 (scFv, V domains shown, not shown: small tags and cut ends)
VH: B1 VH with S99G, S101L, M102F
VL: B1 VL with N95S
modifications: linker not given
B3: A12-H04 (scFv, V domains shown, not shown: small tags and cut ends)
VH: B1 VH with S99G, S101L, M102L
VL: B1 VL with S91A, N95T
modifications: linker not given
B4: A12-E05 (scFv, V domains shown, not shown: small tags and cut ends)
VH: B1 VH with S99G, S101I, M102L
VL: B1 VL with S93N, N95S, N96T
modifications: scFv linker not given

Substitutions are numbered along the chain they refer to.

In the first assay the target is soluble human FcRn (human) (UniProt P55899). Put plainly: ELISA on coated shFcRn, scFv 100 ng/mL, pH 7.4. For orientation: An ELISA detects its analyte on a solid surface through an enzyme-linked reagent.
Chain of soluble human FcRn (human) (P55899 24-297, chain 1 of 2): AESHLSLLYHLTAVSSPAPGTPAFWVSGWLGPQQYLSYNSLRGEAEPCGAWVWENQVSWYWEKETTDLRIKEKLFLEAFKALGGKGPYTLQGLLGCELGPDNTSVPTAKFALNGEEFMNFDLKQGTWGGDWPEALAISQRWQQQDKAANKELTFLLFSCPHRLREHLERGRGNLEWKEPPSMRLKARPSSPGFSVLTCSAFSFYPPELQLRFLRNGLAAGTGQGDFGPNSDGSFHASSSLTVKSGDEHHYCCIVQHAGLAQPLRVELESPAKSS
Chain of soluble human FcRn (human) (P61769 21-119, chain 2 of 2, further chain): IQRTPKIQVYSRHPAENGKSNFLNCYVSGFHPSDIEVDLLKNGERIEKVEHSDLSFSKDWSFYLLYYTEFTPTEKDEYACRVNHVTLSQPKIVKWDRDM
B1 came in with an ELISA (OD450) of 1.05 OD450.

Molecule B2 gave an ELISA (OD450) of 1.29 OD450.

The molecule B3 displayed an ELISA (OD450) of 1.57 OD450.

For B4, the ELISA (OD450) was 1.8 OD450.

A further assay shares this target. Kind of assay: ELISA on coated shFcRn, scFv 100 ng/mL, pH 6.0.
B1 gave an ELISA (OD450) of 1.71 OD450.

B2 returned an ELISA (OD450) of 1.59 OD450.

As to B3, the ELISA (OD450) amounted to 2.26 OD450.

B4: the ELISA (OD450) amounted to 2.06 OD450.
